According to US20260124314A1, “ANTl-5T4 ANTIGEN BINDING DOMAINS, ANTIBODY-DRUG CONJUGATES AND METHODS OF USE THEREOF” (Salubris Biotherapeutics, Inc., priority 2023, published 2026):

Experiments:
5T4 = target: T1, 5T4 (Homo sapiens, UniProt Q13641); assay: Non-overlapping epitope binding assay (SPR); details: mouse antibody captured, 5T4 injected, then humanized antibody
T1 sequence (Q13641 32-420): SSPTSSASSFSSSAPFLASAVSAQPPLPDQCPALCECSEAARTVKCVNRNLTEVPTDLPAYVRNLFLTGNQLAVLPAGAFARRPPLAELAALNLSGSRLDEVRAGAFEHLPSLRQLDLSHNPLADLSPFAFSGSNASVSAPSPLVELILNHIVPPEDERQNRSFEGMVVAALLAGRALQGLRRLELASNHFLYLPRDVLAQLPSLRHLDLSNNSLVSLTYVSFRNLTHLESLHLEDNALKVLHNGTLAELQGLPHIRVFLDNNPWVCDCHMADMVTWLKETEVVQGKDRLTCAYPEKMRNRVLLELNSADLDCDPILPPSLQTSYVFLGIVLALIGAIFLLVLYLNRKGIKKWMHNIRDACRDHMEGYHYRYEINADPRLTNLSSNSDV
Description: To examine epitope binding of anti-5T4 bispecific antibody-drug conjugate parental monospecific antibodies, surface plasmon resonance (SPR) binding experiments were performed using Biacore™ 8K systems (Cytiva™). HBS-EP+ buffer (10 mM HEPES, 150 mM NaCl, 3 mM EDTA and 0.05% v/v Surfactant P20) was used as running buffer. Anti-mouse IgG antibodies from the mouse antibody capture kit (Cytiva) were coupled in active flow cells on a CM5 sensor chip using an amine coupling kit (Cytiva), whereas the reference cell was left blank. As the first step, mouse monospecific antibody Ab1 or Ab2 was injected over both cells on all experimental channels. Second, test article 5T4 or buffer was injected over both cells on the corresponding channel. Third, humanized monospecific antibody Ab1 or Ab2, or buffer, was injected over both cells on all experimental channels. After each binding cycle, the sensor chip was regenerated with 10 mM Glycine-HCl pH1.7. SPR signals (RU) were recorded in real-time and plotted against time to generate binding sensorgrams. Sensorgrams from multiple channels were overlaid using Biacore 8K Evaluation Software.
To confirm the non-overlapping epitope binding of the select monospecific antibody Nos. 1 and 2, a surface plasmon resonance (SPR) technology-based binding assay was performed. […]

[1] = target: T2, recombinant human 5T4 protein (human, UniProt Q13641 32-355); assay: optimized SPR (Biacore 8K), antibody captured on Protein A chip, recombinant 5T4 as analyte 0.02 to 5 µg/mL, 1:1 model
T2 construct: The ELISA protein was bought (Sino biologics and Biorbyt); also called recombinant 5T4 protein; trophoblast glycoprotein (TPBG)
T2 sequence: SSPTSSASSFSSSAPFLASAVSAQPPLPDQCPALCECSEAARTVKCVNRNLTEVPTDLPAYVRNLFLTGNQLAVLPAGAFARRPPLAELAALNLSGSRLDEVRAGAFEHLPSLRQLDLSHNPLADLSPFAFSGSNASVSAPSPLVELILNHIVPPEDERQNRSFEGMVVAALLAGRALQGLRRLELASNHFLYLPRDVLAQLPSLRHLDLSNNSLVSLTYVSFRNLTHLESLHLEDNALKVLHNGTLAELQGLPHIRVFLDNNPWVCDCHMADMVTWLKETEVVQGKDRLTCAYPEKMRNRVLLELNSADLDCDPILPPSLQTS
Description: (§1) SPR kinetic experiments were performed on Biacore 8K systems (GE healthcare) with HBS-EP+ as running buffer. […] Capture level for each antibody was maintained between 50-100 RU. The final analyte binding level at the highest concentration was maintained below 50 RU. […] After each binding cycle, the sensor chip was regenerated with glycine solution (pH 1.5). The resulting sensorgrams were fitted with a one-to-one binding model to extract kinetic constants using Biacore 8K Evaluation Software.

[2] = target: T2, recombinant human 5T4 protein; assay: SPR (Biacore 8K, optimized assay): antibody captured on a protein A chip, recombinant 5T4 injected at 0.02-5 µg/mL, one-to-one binding model
Description: as §1

[3] = target: T2, recombinant human 5T4 protein; assay: SPR (Biacore 8K), antibody captured on Protein A chip, 5T4 as analyte 0.625-10 nM, 1:1 model
Description: (§2) The binding affinity of anti-5T4 bispecific antibody-drug conjugate monospecific and bispecific antibodies to 5T4 was measured by Biacore kinetic experiments using a Protein A sensor chip on Biacore 8K (Cytiva) with HBS-EP+ as running buffer. […] After each binding cycle, the sensor chip was regenerated with glycine solution, pH 1.5. Signals from reference surface and an ensemble of buffer blank injections were subtracted from binding signals to correct for nonspecific binding and injection artifacts. The corrected experimental signals were globally fitted to a 1:1 binding model to extract kinetic constants, including association rate constant (ka), dissociation rate constant (kd), and equilibrium dissociation constant (KD), using the Biacore 8K Evaluation Software.

[4] = target: T2, recombinant human 5T4 protein; assay: SPR (Biacore 8K): antibody captured on a protein A chip, 5T4 protein injected at 0.625-10 nM, 1:1 binding model
Description: as §2

[5] = target: T2, recombinant human 5T4 protein; assay: SPR (Biacore 8K): antibody captured on a protein A chip, 5T4 protein injected at 0.625-10 nM, 1:1 binding model; FIG. 4C on D00005 prints the same value as 7.42e-11
Description: as §2

FcγRI (Abcam) = FcγRI (Abcam) (UniProt P12314); assay: SPR (Biacore 8K), antibody captured on Protein A chip, Fc receptor as analyte, 1:1 model
FcγRIIIa (158V) = FcγRIIIa (158V) (UniProt P08637); assay: as above
Chain of FcγRIIIa (158V) (P08637 17-208 F176V): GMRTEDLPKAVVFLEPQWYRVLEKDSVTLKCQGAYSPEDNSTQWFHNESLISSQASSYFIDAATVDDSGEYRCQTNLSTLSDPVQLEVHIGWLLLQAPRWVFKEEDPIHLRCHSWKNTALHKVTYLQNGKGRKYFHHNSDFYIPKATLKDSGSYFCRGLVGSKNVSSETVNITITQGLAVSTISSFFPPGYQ

Chain of FcγRI (Abcam) (P12314 16-288 limits assumed): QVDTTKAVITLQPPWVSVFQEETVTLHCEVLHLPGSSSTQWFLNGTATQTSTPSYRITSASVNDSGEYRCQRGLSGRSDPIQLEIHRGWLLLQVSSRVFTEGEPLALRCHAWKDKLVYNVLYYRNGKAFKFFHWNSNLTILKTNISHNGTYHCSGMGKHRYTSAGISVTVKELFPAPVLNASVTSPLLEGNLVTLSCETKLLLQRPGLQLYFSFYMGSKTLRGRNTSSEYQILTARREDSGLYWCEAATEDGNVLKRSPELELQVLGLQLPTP

B1: mouse antibody No. 2 ((m)Ab2) (antibody, V domains shown)
VH: EVKLLESGGGLVQPGGSLKLSCAASGFDFSRYWMTWVRQAPGKGLEWIGEINPDSRTINYTPSLKDKFIISRDNAKNTLYLHMSKVRSEDTALYYCARPDHDYNPYYFNYWGQGTTLTVSS
VL: DIVLTQSPASLAVSLGQRATISCRPSQSVSTSSNSYIHWYQQKPGQPPKLLIKYASNLESGVPARFSGSGSGTDFTLNIHPVEEEDTATYYCQQSWEIPLTFGAGTKLELK
notes: Mouse IgG; also called mouse Ab2; mouse monospecific antibody Ab2
- epitope binding on 5T4 (5T4): non-overlapping epitopes
- Kd [1]: 1.34 nM
- koff [2]: 0.000273 s⁻¹
- kon [2]: 203000 M⁻¹ s⁻¹

B2: humanized antibody No. 2 ((h)Ab2) (antibody, V domains shown)
VH: EVQLLESGGGLVQPGGSLRLSCAASGFDFSRYWMTWVRQAPGKGLEWVSEINPDSRTINYTPSLKDRFTISRDNAKNTLYLQMNSLRAEDTAVYYCARPDHDYNPYYFNYWGQGTTVTVSS
VL: DIVLTQSPASLAVSLGQRATISCRPSQSVSTSSNSYIHWYQQKPGQPPKLLIKYASNLESGVPARFSGSGSGTDFTLTISPVEAEDTATYYCQQSWEIPLTFGGGTKLEIK
notes: also called humanized Ab2; humanized monospecific antibody Ab2
- Kd [3]: 0.32 nM
- koff [4]: 0.000283 s⁻¹
- kon [4]: 884000 M⁻¹ s⁻¹

B3: Bs3-HL biparatopic anti-5T4 antibody (Bs3 orientation, scFv in the VH-VL orientation) (bispecific antibody, human IgG1, kappa)
heavy: QVQLVQSGAEVKKPGASVKVSCKASGYSFTDYYMHWVRQAPGQGLEWMGRVSPNNGATNTNQKFKDRVTMTRDTSISTAYMELRSLRSEDTAVYYCARSTMITSYYFDYWGQGTLVTVSSASTKGPSVFPLAPSSKSTSGGTAALGCLVKDYFPEPVTVSWNSGALTSGVHTFPAVLQSSGLYSLSSVVTVPSSSLGTQTYICNVNHKPSNTKVDKRVEPKSCDKTHTCPPCPAPEFLGGPCVFLFPPKPKDTLMISRTPEVTCVVVDVSHEDPEVKFNWYVDGVEVHNAKTKPREEQYNSTYRVVSVLTVLHQDWLNGKEYKCKVSNKALPAPIEKTISKAKGQPREPQVYTLPPSREEMTKNQVSLTCLVKGFYPSDIAVEWESNGQPENNYKTTPPVLDSDGSFFLYSKLTVDKSRWQQGNVFSCSVMHEALHAHYTQKSLSLSPGKGGGGSGGGGSGGGGSEVQLLESGGGLVQPGGSLRLSCAASGFDFSRYWMTWVRQAPGKCLEWVSEINPDSRTINYTPSLKDRFTISRDNAKNTLYLQMNSLRAEDTAVYYCARPDHDYNPYYFNYWGQGTTVTVSSGGGGSGGGGSGGGGSGGGGSDIVLTQSPASLAVSLGQRATISCRPSQSVSTSSNSYIHWYQQKPGQPPKLLIKYASNLESGVPARFSGSGSGTDFTLTISPVEAEDTATYYCQQSWEIPLTFGCGTKLEIK
light: DIVMTQSPSFLSVSVGDRVTITCKASQSVSTDVAWYQQKPGQAPKLLIYFASDRYTGVPDRFSGSGSGTDFTFTISSLQAEDVAVYYCQQDYSSPPTFGGGTKLEIKRTVAAPSVFIFPPSDEQLKSGTASVVCLLNNFYPREAKVQWKVDNALQSGNSQESVTEQDSKDSTYSLSSTLTLSKADYEKHKVYACEVTHQGLSSPVTKSFNRGEC
notes: The heavy chain is Ab1 heavy chain (IgG1), linker, then Ab2 scFv (VH-linker-VL); Bs3-HL is described as the form without FCA, so its real Fc may have L, S and N at those positions; also called bispecific antibody in the Bs3-HL orientation; Bispecific 5T4-BS3 antibody
- Kd [3]: 0.742 nM
- Kd [2]: 0.00363 nM
- Kd [5]: 0.0742 nM

B4: Bs3-HL biparatopic anti-5T4 antibody conjugated to MMAE (Example 4) (bispecific antibody, human IgG1, kappa)
heavy: QVQLVQSGAEVKKPGASVKVSCKASGYSFTDYYMHWVRQAPGQGLEWMGRVSPNNGATNTNQKFKDRVTMTRDTSISTAYMELRSLRSEDTAVYYCARSTMITSYYFDYWGQGTLVTVSSASTKGPSVFPLAPSSKSTSGGTAALGCLVKDYFPEPVTVSWNSGALTSGVHTFPAVLQSSGLYSLSSVVTVPSSSLGTQTYICNVNHKPSNTKVDKRVEPKSCDKTHTCPPCPAPEFLGGPCVFLFPPKPKDTLMISRTPEVTCVVVDVSHEDPEVKFNWYVDGVEVHNAKTKPREEQYNSTYRVVSVLTVLHQDWLNGKEYKCKVSNKALPAPIEKTISKAKGQPREPQVYTLPPSREEMTKNQVSLTCLVKGFYPSDIAVEWESNGQPENNYKTTPPVLDSDGSFFLYSKLTVDKSRWQQGNVFSCSVMHEALHAHYTQKSLSLSPGKGGGGSGGGGSGGGGSEVQLLESGGGLVQPGGSLRLSCAASGFDFSRYWMTWVRQAPGKCLEWVSEINPDSRTINYTPSLKDRFTISRDNAKNTLYLQMNSLRAEDTAVYYCARPDHDYNPYYFNYWGQGTTVTVSSGGGGSGGGGSGGGGSGGGGSDIVLTQSPASLAVSLGQRATISCRPSQSVSTSSNSYIHWYQQKPGQPPKLLIKYASNLESGVPARFSGSGSGTDFTLTISPVEAEDTATYYCQQSWEIPLTFGCGTKLEIK
light: DIVMTQSPSFLSVSVGDRVTITCKASQSVSTDVAWYQQKPGQAPKLLIYFASDRYTGVPDRFSGSGSGTDFTFTISSLQAEDVAVYYCQQDYSSPPTFGGGTKLEIKRTVAAPSVFIFPPSDEQLKSGTASVVCLLNNFYPREAKVQWKVDNALQSGNSQESVTEQDSKDSTYSLSSTLTLSKADYEKHKVYACEVTHQGLSSPVTKSFNRGEC
modifications: monomethyl auristatin E (MMAE) conjugated; attachment residues, chain and drug-to-antibody ratio not stated for this experiment
notes: Antibody-drug conjugate of Bs3-HL; also called bispecific antibody in the Bs3-HL orientation conjugated to MMAE; bispecific antibody with conjugated MMAE
- Kd [2]: 0.0159 nM
- koff [2]: 5.99e-06 s⁻¹
- kon [2]: 376000 M⁻¹ s⁻¹

B5: humanized antibody No. 1 ((h)Ab1) (antibody, V domains shown)
VH: QVQLVQSGAEVKKPGASVKVSCKASGYSFTDYYMHWVRQAPGQGLEWMGRVSPNNGATNTNQKFKDRVTMTRDTSISTAYMELRSLRSEDTAVYYCARSTMITSYYFDYWGQGTLVTVSS
VL: DIVMTQSPSFLSVSVGDRVTITCKASQSVSTDVAWYQQKPGQAPKLLIYFASDRYTGVPDRFSGSGSGTDFTFTISSLQAEDVAVYYCQQDYSSPPTFGGGTKLEIK
notes: The FcγR assay calls it 'without Fc mutations'; also called humanized Ab1; humanized monospecific antibody Ab1
- Kd (FcγRI (Abcam)): 3.73 nM
- Kd (FcγRIIIa (158V)): 50.5 nM
- Kd [3]: 0.198 nM
- koff [4]: 0.000248 s⁻¹
- kon [4]: 1.25e+06 M⁻¹ s⁻¹

B6: mouse antibody No. 1 ((m)Ab1) (antibody, V domains shown)
VH: EVQLQQSGPDLVKPGASVKISCKASGYSFTDYYMHWVKQSHGKSLEWIGRVSPNNGATNTNQKFKDKAILTVDKSSSTAYMDLRSLTSEDSAVYYCARSTMITSYYFDYWGQGTTLTVSS
VL: SIVMTQTPKFLLVSAGDRITITCKASQSVSTDVAWYQQKPGQSPKLLIYFASDRYTGVPDRFTGSGNGTDFTFTITTVQAEDLAIYFCQQDYSSPPTFGGGTKLEIK
notes: Mouse IgG, captured by anti-mouse IgG antibodies; also called mouse Ab1; mouse monospecific antibody Ab1
- epitope binding on 5T4 (5T4): non-overlapping epitopes
- Kd [1]: 1.43 nM
- koff [2]: 0.000421 s⁻¹
- kon [2]: 259000 M⁻¹ s⁻¹
